Results taken from publication PMC5118228 (EJNMMI Research, 2016).

Test: in vivo
Settings: male, athymic nu/nu, mouse, iv, total radioactivity
[1] = 0.3 nmol, uptake in Red blood cell
[2] = 1 nmol, uptake in Red blood cell
[3] = 3 nmol, uptake in Red blood cell

## C[C@@H](O)[C@H](NC(=O)[C@@H]1CSSC[C@H](NC(=O)[C@@H](Cc2ccccc2)NC(=O)CN2CCN(CC(=O)O)CCN(CC(=O)O)CCN(CC(=O)O)CC2)C(=O)N[C@@H](Cc2ccc(O)cc2)C(=O)N[C@H](Cc2c[nH]c3ccccc23)C(=O)N[C@@H](CCCCN)C(=O)N[C@@H]([C@@H](C)O)C(=O)N1)C(=O)O [^111In-DOTATATE, metal not drawn]
0.3 nmol, uptake in Pituitary
  tissue uptake at 0.05 h: 0.3 %ID/g
  tissue uptake at 10 min: 0.2 ± 0.05 %ID/g
  tissue uptake at 0.5 h: 0.1 %ID/g
  tissue uptake at 1 h: < 0.05 %ID/g
0.3 nmol, uptake in Plasma
  tissue uptake at 0.05 h: 13.4 ± 1.4 %ID/g
  tissue uptake at 10 min: 7.2 ± 2 %ID/g
  tissue uptake at 0.5 h: 3.4 ± 0.5 %ID/g
  tissue uptake at 1 h: 0.7 ± 0.2 %ID/g
[1]
  tissue uptake at 0.05 h: 2.6 ± 0.6 %ID/g
  tissue uptake at 10 min: 1.3 ± 0.4 %ID/g
  tissue uptake at 0.5 h: 0.6 ± 0.1 %ID/g
  tissue uptake at 1 h: < 0.05 %ID/g
0.3 nmol, uptake in Stomach
  tissue uptake at 10 min: 3.9 ± 0.4 %ID/g
  tissue uptake at 0.5 h: 3.5 ± 0.2 %ID/g
  tissue uptake at 1 h: 3.4 ± 0.8 %ID/g
0.3 nmol, uptake in Tumor
  tissue uptake at 10 min: 8 ± 1.2 %ID/g
  tissue uptake at 0.5 h: 9.9 ± 3 %ID/g
  tissue uptake at 1 h: 9.9 ± 0.7 %ID/g
1 nmol, uptake in Adrenals
  tissue uptake at 0.5 h: 0.5 ± 0.09 %ID/g
  tissue uptake at 1 h: 0.5 ± 0.05 %ID/g
1 nmol, uptake in Kidney
  tissue uptake at 0.05 h: 17.5 ± 9.7 %ID/g
  tissue uptake at 10 min: 14.2 ± 7 %ID/g
  tissue uptake at 0.5 h: 6 ± 1.8 %ID/g
  tissue uptake at 1 h: 14.1 ± 3.4 %ID/g
1 nmol, uptake in Muscles
  tissue uptake at 0.05 h: 1.2 ± 0.4 %ID/g
  tissue uptake at 10 min: 1 ± 0.5 %ID/g
  tissue uptake at 0.5 h: 0.2 ± 0.09 %ID/g
  tissue uptake at 1 h: < 0.05 %ID/g
1 nmol, uptake in Pancreas
  tissue uptake at 0.05 h: 3.5 ± 2.4 %ID/g
  tissue uptake at 0.5 h: 0.7 ± 0.2 %ID/g
  tissue uptake at 1 h: 1.5 ± 0.3 %ID/g
1 nmol, uptake in Pituitary
  tissue uptake at 0.05 h: 0.1 ± 0.09 %ID/g
  tissue uptake at 10 min: 0.8 ± 1.4 %ID/g
  tissue uptake at 0.5 h: < 0.05 %ID/g
  tissue uptake at 1 h: < 0.05 %ID/g
1 nmol, uptake in Plasma
  tissue uptake at 0.05 h: 11.3 ± 4.9 %ID/g
  tissue uptake at 10 min: 7.6 ± 3.1 %ID/g
  tissue uptake at 1 h: 0.6 ± 0.2 %ID/g
[2]
  tissue uptake at 0.05 h: 2.3 ± 0.4 %ID/g
  tissue uptake at 10 min: 1.3 ± 0.5 %ID/g
  tissue uptake at 0.5 h: 0.3 ± 0.1 %ID/g
  tissue uptake at 1 h: 0.4 ± 0.1 %ID/g
1 nmol, uptake in Stomach
  tissue uptake at 0.05 h: 2.4 ± 1.1 %ID/g
  tissue uptake at 0.5 h: 0.8 ± 0.2 %ID/g
1 nmol, uptake in Tumor
  tissue uptake at 0.05 h: 5.6 ± 2 %ID/g
  tissue uptake at 10 min: 6.7 ± 2.9 %ID/g
  tissue uptake at 0.5 h: 2.9 ± 0.6 %ID/g
  tissue uptake at 1 h: 7 ± 1.1 %ID/g
3 nmol, uptake in Adrenals
  tissue uptake at 10 min: 1.1 ± 0.7 %ID/g
  tissue uptake at 0.5 h: 0.6 ± 0.2 %ID/g
  tissue uptake at 1 h: 0.3 ± 0.06 %ID/g
3 nmol, uptake in Kidney
  tissue uptake at 0.05 h: 19.1 ± 3.1 %ID/g
  tissue uptake at 10 min: 14.6 ± 2.9 %ID/g
  tissue uptake at 0.5 h: 14.5 ± 1.1 %ID/g
  tissue uptake at 1 h: 14.7 ± 2.1 %ID/g
3 nmol, uptake in Muscles
  tissue uptake at 0.05 h: 1.3 ± 0.3 %ID/g
  tissue uptake at 10 min: 0.8 ± 0.3 %ID/g
  tissue uptake at 0.5 h: 0.3 ± 0.1 %ID/g
  tissue uptake at 1 h: < 0.05 %ID/g
3 nmol, uptake in Pancreas
  tissue uptake at 0.05 h: 2.2 ± 0.4 %ID/g
  tissue uptake at 10 min: 1.6 ± 0.2 %ID/g
  tissue uptake at 0.5 h: 1 ± 0.2 %ID/g
  tissue uptake at 1 h: 0.8 ± 1 %ID/g
3 nmol, uptake in Pituitary
  tissue uptake at 0.05 h: 0.2 ± 0.06 %ID/g
  tissue uptake at 10 min: 0.1 ± 0.06 %ID/g
  tissue uptake at 0.5 h: 0.08 ± 0.06 %ID/g
  tissue uptake at 1 h: < 0.05 %ID/g
3 nmol, uptake in Plasma
  tissue uptake at 0.05 h: 13.8 ± 1.7 %ID/g
  tissue uptake at 10 min: 8.4 ± 0.9 %ID/g
  tissue uptake at 1 h: 0.6 ± 0.2 %ID/g
[3]
  tissue uptake at 10 min: 2.4 ± 0.3 %ID/g
  tissue uptake at 0.5 h: 0.6 ± 0.2 %ID/g
  tissue uptake at 1 h: < 0.05 %ID/g
3 nmol, uptake in Stomach
  tissue uptake at 0.05 h: 3.2 ± 0.5 %ID/g
  tissue uptake at 10 min: 2.3 ± 0.2 %ID/g
  tissue uptake at 0.5 h: 1.5 ± 0.6 %ID/g
  tissue uptake at 1 h: 1.6 ± 0.7 %ID/g
3 nmol, uptake in Tumor
  tissue uptake at 0.05 h: 2.9 ± 1.1 %ID/g
